From article PMC3931628

Legend:
[1] = biological target: nectin-1 (human (endogenous in primary tonsil epithelial cells)) (UniProt Q15223)
[2] = biological target: nectin-1 (human (endogenous in primary tonsil epithelial cells)) (UniProt Q15223); remark: listed apart in the source

UniProt Q15223, sequence (Q15223 31-517): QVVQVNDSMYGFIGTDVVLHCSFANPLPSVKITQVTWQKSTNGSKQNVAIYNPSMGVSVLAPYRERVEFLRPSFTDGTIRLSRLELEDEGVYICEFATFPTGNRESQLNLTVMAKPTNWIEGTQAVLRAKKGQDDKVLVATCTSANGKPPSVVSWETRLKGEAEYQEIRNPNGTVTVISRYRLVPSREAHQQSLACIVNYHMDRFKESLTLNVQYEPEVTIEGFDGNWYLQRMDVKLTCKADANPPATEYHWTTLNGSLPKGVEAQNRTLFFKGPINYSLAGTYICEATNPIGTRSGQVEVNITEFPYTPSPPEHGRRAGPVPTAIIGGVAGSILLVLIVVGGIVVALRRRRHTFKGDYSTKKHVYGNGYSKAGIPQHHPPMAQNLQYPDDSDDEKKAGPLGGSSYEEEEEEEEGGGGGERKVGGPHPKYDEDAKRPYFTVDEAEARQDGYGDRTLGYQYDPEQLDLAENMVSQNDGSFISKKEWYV

truncated form of HSV-1 gD ectodomain gD(306t) (domain or fragment)
HSV-1 infection (percent of infected cells, 24 h) of polarized tonsil cells treated with active tat/gp120 or HIV virions; reduction by preincubation with anti-nectin-1 antibody CK-8 (10 µg/ml) [1]: 70% | HSV-1 plaque numbers in polarized tonsil cells treated with active tat/gp120; reduction by anti-gD antibodies (10 µg/ml) [2]: 30% | HSV-1 plaque numbers in polarized tonsil cells treated with active tat/gp120; reduction by anti-nectin-1 antibodies (10 µg/ml) [2]: 40% | HSV-1 plaque numbers in polarized tonsil cells treated with active tat/gp120; reduction by the combination of anti-gD and anti-nectin-1 antibodies [2]: 60% | HSV-1 plaque size (infected cells per plaque, cell-to-cell spread) in polarized tonsil cells treated with active tat/gp120; reduction by anti-gD antibodies (10 µg/ml) [2]: 60% | HSV-1 plaque size (infected cells per plaque, cell-to-cell spread) in polarized tonsil cells treated with active tat/gp120; reduction by anti-nectin-1 antibodies (10 µg/ml) [2]: 50% | HSV-1 plaque size (infected cells per plaque, cell-to-cell spread) in polarized tonsil cells treated with active tat/gp120; reduction by the combination of anti-nectin-1 and anti-gD antibodies [2]: 70%
